Results taken from the nanobody polyreactivity screen of Harvey et al. (2022).

Test: yeast display, Sf9 membrane polyspecificity reagent, FACS + sequencing; frameworks hold sequencing errors
Method in brief: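 Synthetic nanobody libraries on Saccharomyces cerevisiae BJ5465 were galactose-induced for 36–48 hours, stained 1 hour at 4 °C with 10% biotinylated, detergent-solubilized Sf9 membrane reagent and enriched on streptavidin microbeads. FACS then separated cells into low and high (top ~1%) gates by anti-HA (expression) and streptavidin (reagent binding) fluorescence. Genes were colony-PCR amplified, MiSeq 2 × 250 sequenced and CDR-length filtered. A clone's polyreactivity label is that of its gate of origin.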
In the case of “QVQLVESGGGLVQAGGGLRLSCAASGSIFRSNTMGWYRQAPGKERELVAGISYSGGSTYADSVKGRFTISRDNAKNTVYLQMNSLKPEDTAVYYCARRVYSYDVLYFSYYYWGQGTQVTVSS”, the “polyreactivity (PSR sort gate)” value is reported as “low polyreactivity”. In the case of “QVQLVESGGGLVQAGGIHRLSCPASGIIFYYYAMGWYRHAPGKESELVAAISWSGGSTYYADSVKGRFTISRDNAKYTVYLQMNSLKPEDTAVYYCAAAFSPGWWSRHTYDYDYWVQGTQVTVSS”, the “polyreactivity (PSR sort gate)” value is reported as “high polyreactivity”. With “QVQLVESGGGLVQAGGILRISCAASGRNLSRNAMGWYRQAPGKERELVAAISRSGSRTYYADSVKGRFTISRDNAKNSVYLLMNSLKPEDTAVYYCNAESYLSGWWYDYWGQGTQVTVSS” the “polyreactivity (PSR sort gate)” value was “high polyreactivity”. In the case of “QVQLVESGGGLVQAGGILRISSDSSGSIFTFYAMGCYRQEPGKERELFAAISYGGGITYYADSVKGRFSISRDNAKNTVYLQMNSLKPEDTAVFYCAGDDGYYNLYFDYDYWGQGTQVTVSS”, the “polyreactivity (PSR sort gate)” value is reported as “low polyreactivity”. For “QVQLVESGGGLVQAGGILRLICAASGFIFLGYALGWYRQAPGTERELVAAISSDSDKNYADSVKGRFTISRDNAKNTVYLQMNILKPEDTAVYYCIADIDSYREMDYWGQGTQVTVSS”, the “polyreactivity (PSR sort gate)” value was “low polyreactivity”. For “QVQLVESGGGLVQAGGILRLRCAASGLTFVYYAMGWYRQAPGKERELVAGITSRGGRTYYADSVKGRFTISRDNAKNTVYLQMNSLKPEDTAGYYCNAVDRYNRFDYWGQGTQVTVSS”, the “polyreactivity (PSR sort gate)” value was “high polyreactivity”. In the case of “QVQLVESGGGLVQAGGILRLSCAARTFVNYDMGWTRQAHGKERELVAAISSSGGSTNYADSVKGRFTISRDNAKNTVYLQMKSLKPEDTAVYYCAAASRRQVIPAMYYWGQGTQVTVSS”, the “polyreactivity (PSR sort gate)” value is reported as “high polyreactivity”. With “QVQLVESGGGLVQAGGILRLSCAASGFIFTYYAKGWYRQAPGKEMELVAAISWSGGSTYYADSVKGRFTISRDNAKNTVYLLMNSLKPEDTAVYYCAVDLHYSRGPRDAQYRYYYWGHGTQVTVSS” the “polyreactivity (PSR sort gate)” value was “high polyreactivity”. In the case of “QVQLVESGGGLVQAGGILRLSCAASGFILWYYTMGWSRQAPGKERELVAAISRGGTTYYADSVKGRFTISRDTAKNTVYLQMYSLKPEDTAVYYCNAPYNTHGIVLYDYWGQGTQVTVSS”, the “polyreactivity (PSR sort gate)” value is reported as “low polyreactivity”. In the case of “QVQLVESGGGLVQAGGILRLSCAASGFTIYYYAIGWYRQAPGKERELVASITSGGSTYYADSVKGRFTISRDNAKNSVYLQMNSLKPEDTAVYYCAKTRFHYKEGDYWGQGTQVTVSS”, the “polyreactivity (PSR sort gate)” value is reported as “low polyreactivity”. With “QVQLVESGGGLVQAGGILRLSCAASGGIIAINAMGWYRQAPGKERELVAAISWGDGITYYADSVKGRFTISRDNEKNTVYLQMNSLKPEDTAVYYCAADEDEYRGGDESWGQGTQVTVSS” the “polyreactivity (PSR sort gate)” value was “low polyreactivity”. In the case of “QVQLVESGGGLVQAGGILRLSCAASGGTFTYNAMGWYRQAPGKERELVAAITNGGGSTYYADSVKGRFTISRDNAKNTVYLQMNSLKPEDTAVYYCAARWWYYYTEYDYWGQGTQVTVSS”, the “polyreactivity (PSR sort gate)” value is reported as “low polyreactivity”. For “QVQLVESGGGLVQAGGILRLSCAASGILVYNAMGWYIQAPGTERVLVAAISARGGRTYYADSVKGRFTISRDNAKNTVNLQMNSLKPEDTPVYYCATLETTGVNYWGQGTQVTVSS”, the “polyreactivity (PSR sort gate)” value was “high polyreactivity”. With “QVQLVESGGGLVQAGGILRLSCAASGITFPANAMGWYRQAPGKQRELVAAISSYGGSTYYADSVKGRFTISRDNAKNNVYFQMNSLKPEDTAVYYCAAYLSSLGRKYYYWGQGTQVTVSS” the “polyreactivity (PSR sort gate)” value was “high polyreactivity”. For “QVQLVESGGGLVQAGGILRLSCAASGRIFFPNAMGWFRQAPGKERELVASISRGTSTNYADSVKGRVTISRDNAKNTVYLQMHSLKPEDTAVYYCAAKSAPYFGGRSRYAYWGQGTQVTVSS”, the “polyreactivity (PSR sort gate)” value was “low polyreactivity”. For “QVQLVESGGGLVQAGGILRLSCAASGRIFGGNAMGWYRQSPGKEREFVAAITWRGGTTYYADSVKGRFTISRDNAKNTVYLQMNSLKPEDTAVYYCNAMPYTRNTGYDYWGQGTQVTVSS”, the “polyreactivity (PSR sort gate)” value was “high polyreactivity”. In the case of “QVQLVESGGGLVQAGGILRLSCAASGRIFSRYAMGWYRQAPGKERELVAAISSSGTTTYYADSVKARFTISRDNAKNTVYLQMNSLKPEDTAVYYCAVEDRWYGPGYEYWGQGTQVTVSS”, the “polyreactivity (PSR sort gate)” value is reported as “high polyreactivity”. With “QVQLVESGGGLVQAGGILRLSCAASGRIFYGYAMGWYRQAPGKERELVAAISSDGRTYYADSVKGRFTISRDNAKNTVYLQLNSLKPEDTAVYYCAKVPYSGYDYVYWDPSIFEYDYWGQGTQVTVSS” the “polyreactivity (PSR sort gate)” value was “low polyreactivity”. With “QVQLVESGGGLVQAGGILRLSCAASGRILTTNAMGWYRQAPGKERELVAAITRSGGRTYYADSVKGRFTISRDNAKNTVYFQMNSLKPEDTAVYYCNAVTTRLSLYDYWGQGTQVTVSS” the “polyreactivity (PSR sort gate)” value was “high polyreactivity”. For “QVQLVESGGGLVQAGGILRLSCAASGRTFERNAMGWYRQSPGKEREFVAAITEIGGSTYYADSVKGRFTISRDNAKNTVYLQMNSLKPEDTAVYYCAKDGTYSPYDYWGQGTQVTVSS”, the “polyreactivity (PSR sort gate)” value was “low polyreactivity”. With “QVQLVESGGGLVQAGGILRLSCAASGSIFAYYAMGWYRQAPGKERELVAAIDSGGGTSYADSVKGRFTISRDNAKNTVYLQMNRLKPEDTAVYYCNAAGYVVYYRIIAFGYWGQGTQVTVSS” the “polyreactivity (PSR sort gate)” value was “low polyreactivity”. With “QVQLVESGGGLVQAGGILRLSCAASGSIFPGYAMGWYRQAPGKERELVAAISTSGGSTYADSVKGRFTISRDNAKNTVYLQMNSLKPEDTAVYYCAATYTYTSPVYYSLDGPWPYDYWGQGTQVTVSS” the “polyreactivity (PSR sort gate)” value was “low polyreactivity”. For “QVQLVESGGGLVQAGGILRLSCAASGSIFPYYAMGWYRQAPGKERELVAGITSGTRTNYADSVKGRFTISRDNAKNTVYLQMNSLKPEDTAVYYCAKEAHIWGYPDYEYWGQGSQVTVSS”, the “polyreactivity (PSR sort gate)” value was “high polyreactivity”. With “QVQLVESGGGLVQAGGILRLSCAASGSIFQRYVMGWYRQAPGKAREFVAGITRSGGSTYYADSVKGRFTISRDNAKNTVYLPMNSQKPEDTAVYNCAAALVRGTYKYDYWGQGTQVTFSS” the “polyreactivity (PSR sort gate)” value was “high polyreactivity”. For “QVQLVESGGGLVQAGGILRLSCAASGSNFRRNVMWYRQEPGKERELVAGISWRGTSTYYADSVNGRFTISRDNAKNTVYLQMNRLKPEDSAVYYCAALPFVYHRVNEFDYWGQGTQVTVSS”, the “polyreactivity (PSR sort gate)” value was “high polyreactivity”. With “QVQLVESGGGLVQAGGILRLSCAASGSTFGENAMGWYRQSPGKERELVAAISRASSTDYADSVKGRFTISRDNAKNTVYLQMNSLKPEDTAVYYCAVSIFGSFNYDFYSWGQGTQVTVSS” the “polyreactivity (PSR sort gate)” value was “low polyreactivity”. For “QVQLVESGGGLVQAGGILRLSCAASGSTFTYNVMGWYRQAPGKERYLVAAISWSGGSTFYADSVKGRFTISRDNAKNTVYLQMNRLKPEDTAVYYCNKDHLVYPSEFYYWGQGTQVTVSS”, the “polyreactivity (PSR sort gate)” value was “low polyreactivity”. In the case of “QVQLVESGGGLVQAGGILRLSCAASGSTLRTNAMGWYRQEPGKDRELVAAISTRGSSTYYADSVKGRFTISRDNAKNTVYLQMNSLQPEDTAVYYCNTAWGPRRGVNVAFDYWGQGTHVTVSS”, the “polyreactivity (PSR sort gate)” value is reported as “low polyreactivity”. With “QVQLVESGGGLVQAGGILRLSCAAYGFTFYSYSMGWYRQAPGKEREFVAAGSTYYADSVKGRFTISRDNAKNTVYLQMNSLKPEDTAVYYCAADPWIYVQSYGFWGQGTQVTVSS” the “polyreactivity (PSR sort gate)” value was “low polyreactivity”. In the case of “QVQLVESGGGLVQAGGILRLSCAAYGRTFSRYGMGWYRHAPGKERQLVADITWRGDSTYYADSVKGRFTISRDNAKNTVYLQMNSLKPEDTAVYYCAVYWRSLYYGYTYDYWGQGTQVTLSS”, the “polyreactivity (PSR sort gate)” value is reported as “high polyreactivity”. With “QVQLVESGGGLVQAGGILRLSCASSGSIFGYYAMGWYRQAPGKERELVAAIDSGGGSTYYADSVKERFTISRDNAKNTVYFQMNSLKPEDTAVYYCAAVSYSYPSLLYEYWGQGTQVTVSS” the “polyreactivity (PSR sort gate)” value was “low polyreactivity”. For “QVQLVESGGGLVQAGGILRLSCASSGSIFVTFAMGWYRQAPGTEREFVAAINWIGGSTYYADSVKGRFTISRDNAKNTVYLQMNSLKPEDTAVYDCGKRYYRRYDYWGQGTQVTVSS”, the “polyreactivity (PSR sort gate)” value was “high polyreactivity”. With “QVQLVESGGGLVQAGGILRLSCASSRFTFTWYAMGWYRPAPGKERELVAAISLSGDRTYYADSVKGRFTISRDNAKNTVYLQMNSLKPEDTAVYYCVFAFEYYYWGQGTQVTVSS” the “polyreactivity (PSR sort gate)” value was “low polyreactivity”. For “QVQLVESGGGLVQAGGILRLSCDASGRIFRANAMGWYRQAPGKERELVASITYSGGSTYYADSVKGRFTISRDNAKNTVYLPMNSLNPEDTAVYYCARAGISSGGYYYWGQGTQVTVSS”, the “polyreactivity (PSR sort gate)” value was “low polyreactivity”. In the case of “QVQLVESGGGLVQAGGILRLSCTASGFTLGHYAMGWYRQSPGKERELVAVITSGSSTNYADSVKGRFTISRDNAKNTVYLQMNSLKPEDTAVYYCAAEDQFFKWLYYFWGEGTQVTVSS”, the “polyreactivity (PSR sort gate)” value is reported as “low polyreactivity”. For “QVQLVESGGGLVQAGGILRLSSAASGLILPDYAMGWYRQAPGKERELVAAISEYAGSTYYADSVKGRFTISRDNAKNTVYLQMNSLKPEDTAVYYCAAEVWFYSWYFWYYDGEDYWGQGTQVTVSS”, the “polyreactivity (PSR sort gate)” value was “high polyreactivity”. In the case of “QVQLVESGGGLVQAGGILRLSWAASGFTFDSNAMGWYRQAPGKERELVASISSSGSTNYADCVKGRFTISRDNAKNTVDFQMNSLKPEDTAVYSCAAESRYPFIYEYWGQGTEVTVSS”, the “polyreactivity (PSR sort gate)” value is reported as “low polyreactivity”. In the case of “QVQLVESGGGLVQAGGILRLTCAASGSIFGTYAMGWYRTPPGKERELVSAITRRSGRTYYADSVKGRFTISRDNAKNTVNLQMNCLKQEDTAVYYCAKRPVIDDDYWGQGTQETVSS”, the “polyreactivity (PSR sort gate)” value is reported as “high polyreactivity”. For “QVQLVESGGGLVQAGGILRVSCAASGSTFRRYAMGWSRQAPGKERELVAAIRQRGTSTYYADSVKGRFTISRDNAKNTVYLQMNSLKPEDTAVYYCAAGPSLWLFNSWGQGTQVTVSS”, the “polyreactivity (PSR sort gate)” value was “high polyreactivity”. For “QVQLVESGGGLVQAGGILSLSCAASGIISIYYVMGWYRQAPGKERELVAAITSSGARTYYADSVKGRFTISRDNAKNTVYLQMNSLKPEDTAVYYCAAKAVHLAGYDYWGQGTQVTVSS”, the “polyreactivity (PSR sort gate)” value was “high polyreactivity”. In the case of “QVQLVESGGGLVQAGGILSLSCAASGRIFVYYMGWYRQAPGKESELVAAISFGGGSTYYADSVKGRFTISRDNAKNTVYLQMNSLKPEDTAVYYCNADGDDLDWNYYLVQYDSWGQGTQVTVSS”, the “polyreactivity (PSR sort gate)” value is reported as “low polyreactivity”. In the case of “QVQLVESGGGLVQAGGNLRLSCASSGIIFFKYAMGWYRPEPGKERELVAAITSGGSTYYADSVKWRFTISRDNAKKTVYLQMNSLKPEDTAVYYCAAAGGRFIRYCYWGQGTQVTVSS”, the “polyreactivity (PSR sort gate)” value is reported as “high polyreactivity”. For “QVQLVESGGGLVQAGGPLRLSCAASGRIVWNAMGWYRQAPGKEREFVASITWSVGSTYYADSVKGRFTISRDNAKNTVYLQMNSLKPEDTAVYYCAADSYSGYYYWGQGTQVTVSS”, the “polyreactivity (PSR sort gate)” value was “high polyreactivity”.
